Biological target: HSP70 protein (UniProt P0DMV8 1-641)
Experiment: SPR

Chain of HSP70 protein (P0DMV8 whole entry): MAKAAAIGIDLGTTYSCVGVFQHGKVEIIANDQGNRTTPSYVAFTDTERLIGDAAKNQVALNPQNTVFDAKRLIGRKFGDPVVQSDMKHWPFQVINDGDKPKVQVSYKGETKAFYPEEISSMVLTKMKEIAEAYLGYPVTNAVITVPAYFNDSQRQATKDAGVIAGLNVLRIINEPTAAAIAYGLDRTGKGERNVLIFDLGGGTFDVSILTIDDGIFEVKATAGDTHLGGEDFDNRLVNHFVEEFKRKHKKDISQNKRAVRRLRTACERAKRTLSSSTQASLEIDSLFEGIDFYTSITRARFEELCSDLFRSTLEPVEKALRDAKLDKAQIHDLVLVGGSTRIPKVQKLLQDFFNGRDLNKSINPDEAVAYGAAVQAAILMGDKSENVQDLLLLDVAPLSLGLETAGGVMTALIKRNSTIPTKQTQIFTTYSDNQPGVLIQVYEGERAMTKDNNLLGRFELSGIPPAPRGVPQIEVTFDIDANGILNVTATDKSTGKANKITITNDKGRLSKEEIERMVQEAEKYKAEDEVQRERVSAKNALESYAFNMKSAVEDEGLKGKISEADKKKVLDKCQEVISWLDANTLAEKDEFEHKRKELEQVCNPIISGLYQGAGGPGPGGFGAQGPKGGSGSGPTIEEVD

Kd: 479 pM
B1: AIMP2-DX2 protein (other)
chain: MPMYQVKPYHGGGAPLRVELPTCMYRLPNVHGRSYGPAPGAGHVQDYGALKDIVINANPASPPLSLLVLHRLLCEHFRVLSTVHTHSSVKSVPENLLKCFGEQNKKQPRQDYQLGFTLIWKNVPKTQMKFSIQTMCPIEGEGNIARFLFSLFGQKHNAVNATLIDSWVDIAIFQLKEGSSKEKAAVFRSMNSALGKSPWLAGNELTVADVVLWSVLQQIGGCSVTVPANVQRWMRSCENLAPFNTALKLLK
